Where a chain is given by its changes, count along the chain named. In names and notes the source's numbering stands.
T1: human BMP-11 (GDF-11; R&D Systems) (human, UniProt O95390 299-407)
T1 sequence (looked up): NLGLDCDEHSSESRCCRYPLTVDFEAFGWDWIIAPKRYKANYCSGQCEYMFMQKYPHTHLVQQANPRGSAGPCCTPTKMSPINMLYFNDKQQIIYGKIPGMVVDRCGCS

T2: human myostatin (mature, recombinant; R&D Systems) (human, UniProt O14793 267-375)
T2 construct: biotinylated in the mRNA display selection; also called GDF-8; mature myostatin
T2 sequence: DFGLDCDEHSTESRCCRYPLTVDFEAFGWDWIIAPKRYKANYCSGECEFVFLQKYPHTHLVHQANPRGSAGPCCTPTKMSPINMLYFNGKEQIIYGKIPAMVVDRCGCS

T3: human Activin A (R&D Systems) (human, UniProt P08476 311-426)
T3 sequence (looked up): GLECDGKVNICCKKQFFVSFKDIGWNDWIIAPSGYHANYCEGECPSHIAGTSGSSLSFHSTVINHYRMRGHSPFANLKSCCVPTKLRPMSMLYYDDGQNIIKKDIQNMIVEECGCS

B1: 2522_C09 (designed binder)
chain: MGVSDVPRDLEVVAATPTSLLISWEVPRGLARYYRITYGETGGNSPVQEFTVLGRGSTATISGLKPGVDYTITVYAVTVYRDGPLLLAPISINYRTEIDKPSQHHHHHH
B2: 2524_D09 (designed binder)
chain: MGVSDVPRDLEVVAATPTSLLISWYLPYPAHMNYYRITYGETGGNSPVQEFTVPGRGLTATISGLKPGVDYTITVYAVTLTKSQILHHRPISINYRTEIDKPSQHHHHHH
B3: 2525_B01 (designed binder)
chain: MGVSDVPRDLEVVAATPTSLLISWTLPNFGLINYYRITYGETGGNSPVQEFTVPGRGVTATISGLKPGVDYTITVYAVTITKSTIIIYKPISINYRTEIDKPSQHHHHHH
B4: 2524_H05 (designed binder)
chain: B3 chain with T25S, N28Y, F29S, I32A, I80L, K82H, T84N, I87R, K89V
B5: 2525_F07 (designed binder)
chain: B2 chain with Y25S, P29A, L58V, K82R, I85V, L86I, H88Y, R89M
B6: 2525_D02 (designed binder)
chain: MGVSDVPRDLEVVAATPTSLLISWTLPHAGRAHYYRITYGETGGNSPVQEFTVPGRGVTATISGLKPGVDYTITVYAVTVTTTSVILYKPISINYRTEIDKPSQHHHHHH
B7: 3116_A06 D82A (designed binder)
chain: B6 chain with T25S, A29Q, R31K, H33N, T82A, S84G, V85Y, I86L, L87K
B8: 3116_A06 G55A (designed binder)
chain: B6 chain with T25S, A29Q, R31K, H33N, G55A, T82D, S84G, V85Y, I86L, L87K
B9: 3116_A06 G57A (designed binder)
chain: B6 chain with T25S, A29Q, R31K, H33N, G57A, T82D, S84G, V85Y, I86L, L87K
B10: 3116_A06 G84A (designed binder)
chain: B6 chain with T25S, A29Q, R31K, H33N, T82D, S84A, V85Y, I86L, L87K

Tests used:
[1] = biological target: T1, human BMP-11 (GDF-11; R&D Systems); test: SPR format A, 25C
Excerpt: (§1) Anti-human Fc antibody (Biacore/GE) was immobilized on a Biacore CM5 chip via NHS/EDC coupling according to the manufacturer's instructions. […] A concentration range of anti-myostatin Adnectin was applied across all flow cells in HBSP running buffer. Regeneration of the chip surface between cycles was accomplished with two 30 second pulses of 3M MgCl₂. Kinetic traces of reference-subtracted sensorgrams were fit to a 1:1 binding model using Biaevaluation software.

[2] = biological target: T2, human myostatin (mature, recombinant; …); test: SPR format A, 25C
Excerpt: as §1

[3] = biological target: T2, human myostatin (mature, recombinant; …); test: cell-based or functional assay
[4] = biological target: T1, human BMP-11 (GDF-11; R&D Systems); test: cell-based or functional assay
[5] = biological target: T2, human myostatin (mature, recombinant; …); test: cell-based or functional assay; remark: listed apart in the source
[6] = biological target: T3, human Activin A (R&D Systems); test: cell-based or functional assay
[7] = biological target: T2, human myostatin (mature, recombinant; …); test: competitive HTRF, alanine scan
[8] = biological target: T2, human myostatin (mature, recombinant; …); test: cell-based or functional assay; remark: listed apart in the source

Binder | Kd [1] [nM] | Kd [2] [nM] | pSmad2 IC50, 12-point [3] [nM] | ARE-luciferase IC50 [4] [nM] | ARE-luciferase IC50 [5] [nM] | ARE-luciferase IC50 [6] [nM] | IC50 [7] [nM] | Myostatin ARE-luc IC50 [8] [nM]
B1 | 0.45 | 0.51 | 0.13 | 1.6 | 0.06 | 1000 | – | –
B2 | 0.81 | 0.64 | 0.11 | 0.55 | 0.06 | 84 | – | –
B3 | 1.58 | 1.29 | 0.14 | 3.2 | 0.11 | 73 | – | –
B4 | 0.87 | 0.88 | 0.13 | 7.3 | 0.09 | > 1000 | – | –
B5 | 0.97 | 0.79 | 0.27 | 3.4 | 0.13 | > 1000 | – | –
B6 | 0.3 | 0.24 | 0.36 | 1.1 | 0.05 | 345 | – | –
B7 | – | – | – | – | – | – | 0.8 | 1.8
B8 | – | – | – | – | – | – | > 100 | > 100
B9 | – | – | – | – | – | – | > 100 | > 100
B10 | – | – | – | – | – | – | 2 | 3.6

From patent US20170088602A1 (Bristol-Myers Squibb, published 2017)
